From US20240124560A1

Experiments:
Test in all cases: cell-based or functional assay
[1] = molecular target: envelope protein of control pseudovirus NAC_VSV
[2] = molecular target: HIV-1 Env of NIH-035_Ce1176 A3 (HIV-1)
[3] = molecular target: HIV-1 Env of pseudovirus NIH-002_QHO692 .42 (HIV-1)
[4] = molecular target: HIV-1 Env of NIH-032_HIV-16845.2.22 (HIV-1)
[5] = molecular target: HIV-1 Env of pseudovirus NIH-090_A07412M1.vrc12 (clade D) (HIV-1)
[6] = molecular target: HIV-1 Env of NIH-006_AC10.0.29 (HIV-1)
[7] = molecular target: HIV-1 Env of pseudovirus NIH-064_0260.v5.c1 (HIV-1)
[8] = molecular target: HIV-1 Env of NIH-061_Q259ENVd2.17 (HIV-1)
[9] = molecular target: HIV-1 Env of NIH-047_Ce704809221 1B3 (HIV-1)
[10] = molecular target: HIV-1 Env of NIH-081_BJOX028000.10.3 (HIV-1)
[11] = molecular target: HIV-1 Env of pseudovirus NIH-097_6811.v7.c18 (HIV-1)
[12] = molecular target: HIV-1 Env of NIH-016_SC05.8C11.2344 (HIV-1)
[13] = molecular target: HIV-1 Env of NIH-004_PVO.4 (HIV-1)
[14] = molecular target: HIV-1 Env of pseudovirus NAC_92BR020 (HIV-1)
[15] = molecular target: HIV-1 Env of NIH-041_BF1266.431a (HIV-1)
[16] = molecular target: HIV-1 Env of NIH-002_QHO692 .42 (HIV-1)
[17] = molecular target: HIV-1 Env of NIH-075_CNE8 (HIV-1)
[18] = molecular target: HIV-1 Env of pseudovirus NIH-057_MS208.A1 (HIV-1)
[19] = molecular target: HIV-1 Env of NAC_YU2 (HIV-1) (UniProt P35961)
[20] = molecular target: HIV-1 Env of pseudovirus NIH-032_HIV-16845.2.22 (HIV-1)
[21] = molecular target: HIV-1 Env of pseudovirus NIH-073_C3347.c11 (HIV-1)
[22] = molecular target: HIV-1 Env of NIH-060_Q769ENVd22 (HIV-1)
[23] = molecular target: HIV-1 Env of pseudovirus NIH-118_T255.34 (HIV-1)
[24] = molecular target: HIV-1 Env of pseudovirus NAC_93IN905 (HIV-1)
[25] = molecular target: HIV-1 Env of NIH-057_MS208.A1 (HIV-1)
[26] = molecular target: HIV-1 Env of pseudovirus NIH-045_7030102001E5(Rev.) (HIV-1)
[27] = molecular target: HIV-1 Env of pseudovirus NIH-065_191955 A11 (HIV-1)
[28] = molecular target: HIV-1 Env of isolate NIH-083_P0402 c2 11 (HIV-1)
[29] = molecular target: HIV-1 Env of pseudovirus NIH-031_HIV-16055.2.3 (HIV-1)
[30] = molecular target: HIV-1 Env of NIH-049_CNE20 (HIV-1)
[31] = molecular target: HIV-1 Env of pseudovirus NIH-030_HIV-0013095.2.11 (HIV-1)
[32] = molecular target: HIV-1 Env of pseudovirus NAC_ADA (HIV-1)
[33] = molecular target: HIV-1 Env of pseudovirus NIH-046_1394C9G1(Rev.) (HIV-1)
[34] = molecular target: HIV-1 Env of pseudovirus NIH-088_X1632 S2 B10 (clade G) (HIV-1)
[35] = molecular target: HIV-1 Env of pseudovirus NIH-082_X1193 c1 (clade G) (HIV-1)
[36] = molecular target: HIV-1 Env of pseudovirus NIH-102_6545.v4.c1 (HIV-1)
[37] = molecular target: HIV-1 Env of pseudovirus NAC_TRJO.58 (HIV-1)
[38] = molecular target: HIV-1 Env of NIH-069_C1080.c03 (HIV-1)
[39] = molecular target: HIV-1 Env of pseudovirus NIH-117_T278.5 (HIV-1)
[40] = molecular target: HIV-1 Env of isolate NIH-089_3016.v5.c45 (HIV-1)
[41] = molecular target: HIV-1 Env of pseudovirus NIH-056_Q168ENVa2 (HIV-1)
[42] = molecular target: HIV-1 Env of NIH-059_Q461ENVe2 (HIV-1)
[43] = molecular target: HIV-1 Env of pseudovirus NIH-041_BF1266.431a (HIV-1)
[44] = molecular target: HIV-1 Env of pseudovirus NIH-051_CNE17 (HIV-1)
[45] = molecular target: HIV-1 Env of NAC_IAVIC22 (HIV-1)

VRC01 (antibody) gave an IC50 (µg/ml), TZM-bl cell neutralization assay, control pseudovirus [1] of over 50 µg/mL, an IC80 (µg/ml), TZM-bl pseudovirus neutralization [1] of over 50 µg/mL and an IC80 neutralization [2] of 4.99 µg/mL. It also gave a neutralization IC50 [3] of 1.96 µg/mL, an IC80 neutralization [4] of 4.25 µg/mL and an IC50 (µg/ml), TZM-bl cell neutralization assay, pseudovirus [5] of 0.051 µg/mL. The IC80 neutralization [6] was 3.52 µg/mL, the neutralization IC50 [7] was 0.124 µg/mL and the IC80 neutralization [8] was 0.449 µg/mL. The IC80 neutralization [9] was 1.28 µg/mL, the IC80 neutralization [10] was 0.573 µg/mL and the neutralization IC50 [11] was 0.14 µg/mL. For the same substance, the IC80 neutralization [12] was 1.98 µg/mL, the IC80 neutralization [13] was 0.79 µg/mL and the neutralization IC50 [14] was 0.059 µg/mL. It also gave an IC80 neutralization [15] of 0.11 µg/mL, an IC80 neutralization [16] of 7.93 µg/mL and an IC80 neutralization [17] of 0.514 µg/mL. The neutralization IC50 [18] was 0.063 µg/mL, the IC80 neutralization [19] was 0.69 µg/mL and the neutralization IC50 [20] was 0.968 µg/mL. For the same substance, the neutralization IC50 [21] was 0.063 µg/mL, the IC80 neutralization [22] was 0.092 µg/mL and the neutralization IC50 [23] was 0.229 µg/mL. The neutralization IC50 [24] was 0.07 µg/mL, the IC80 neutralization [25] was 0.252 µg/mL and the neutralization IC50 [26] was 0.38 µg/mL. For the same substance, the neutralization IC50 [27] was 0.091 µg/mL, the IC80 (µg/ml), TZM-bl pseudovirus neutralization [28] was 0.164 µg/mL and the neutralization IC50 [29] was 0.053 µg/mL. It also gave an IC80 neutralization [30] of 20.2 µg/mL, a neutralization IC50 [31] of 0.0002 µg/mL and a neutralization IC50 [32] of 0.314 µg/mL. It also gave a neutralization IC50 [33] of 0.28 µg/mL, an IC50 (µg/ml), TZM-bl cell neutralization assay, pseudovirus [34] of 0.338 µg/mL and an IC50 (µg/ml), TZM-bl cell neutralization assay, pseudovirus [35] of 0.098 µg/mL. It also gave a neutralization IC50 [36] of over 50 µg/mL, a neutralization IC50 [37] of 0.057 µg/mL and an IC80 neutralization [38] of 5.7 µg/mL. For the same substance, the neutralization IC50 [39] was over 50 µg/mL, the IC80 (µg/ml), TZM-bl pseudovirus neutralization [40] was 0.223 µg/mL and the neutralization IC50 [41] was 0.056 µg/mL. For the same substance, the IC80 neutralization [42] was 0.776 µg/mL, the neutralization IC50 [43] was 0.028 µg/mL and the neutralization IC50 [44] was 0.219 µg/mL. The IC80 neutralization [45] was 1.37 µg/mL.
PGZL1 (antibody) was tested, and the IC50 (µg/ml), TZM-bl cell neutralization assay, control pseudovirus [1] was over 50 µg/mL, the IC80 (µg/ml), TZM-bl pseudovirus neutralization [1] was over 50 µg/mL and the IC80 neutralization [2] was over 50 µg/mL. For the same substance, the neutralization IC50 [3] was 42 µg/mL, the IC80 neutralization [4] was 2.47 µg/mL and the IC50 (µg/ml), TZM-bl cell neutralization assay, pseudovirus [5] was 13.9 µg/mL. For the same substance, the IC80 neutralization [6] was 18.8 µg/mL, the neutralization IC50 [7] was over 50 µg/mL and the IC80 neutralization [8] was over 50 µg/mL. The IC80 neutralization [9] was 3.1 µg/mL, the IC80 neutralization [10] was 20.9 µg/mL and the neutralization IC50 [11] was over 50 µg/mL. For the same substance, the IC80 neutralization [12] was 24.6 µg/mL, the IC80 neutralization [13] was over 50 µg/mL and the neutralization IC50 [14] was over 50 µg/mL. The IC80 neutralization [15] was over 50 µg/mL, the IC80 neutralization [16] was over 50 µg/mL and the IC80 neutralization [17] was 0.945 µg/mL. For the same substance, the neutralization IC50 [18] was 10.1 µg/mL, the IC80 neutralization [19] was over 50 µg/mL and the neutralization IC50 [20] was 0.424 µg/mL. The neutralization IC50 [21] was 0.055 µg/mL, the IC80 neutralization [22] was over 50 µg/mL and the neutralization IC50 [23] was 3.35 µg/mL. For the same substance, the neutralization IC50 [24] was 0.404 µg/mL, the IC80 neutralization [25] was 45.6 µg/mL and the neutralization IC50 [26] was 49.6 µg/mL. For the same substance, the neutralization IC50 [27] was 1.89 µg/mL, the IC80 (µg/ml), TZM-bl pseudovirus neutralization [28] was 32.3 µg/mL and the neutralization IC50 [29] was 10.9 µg/mL. The IC80 neutralization [30] was 9.5 µg/mL, the neutralization IC50 [31] was 0.008 µg/mL and the neutralization IC50 [32] was 5.36 µg/mL. For the same substance, the neutralization IC50 [33] was 7.87 µg/mL, the IC50 (µg/ml), TZM-bl cell neutralization assay, pseudovirus [34] was 15.5 µg/mL and the IC50 (µg/ml), TZM-bl cell neutralization assay, pseudovirus [35] was 5.31 µg/mL. For the same substance, the neutralization IC50 [36] was over 50 µg/mL, the neutralization IC50 [37] was over 50 µg/mL and the IC80 neutralization [38] was 6.93 µg/mL. The neutralization IC50 [39] was 23.5 µg/mL, the IC80 (µg/ml), TZM-bl pseudovirus neutralization [40] was 10.6 µg/mL and the neutralization IC50 [41] was 21.7 µg/mL. It also gave an IC80 neutralization [42] of over 50 µg/mL, a neutralization IC50 [43] of 48.8 µg/mL and a neutralization IC50 [44] of 12.4 µg/mL. It also gave an IC80 neutralization [45] of over 50 µg/mL.
Work on 4E10 (antibody) yielded an IC50 (µg/ml), TZM-bl cell neutralization assay, control pseudovirus [1] of over 50 µg/mL, an IC80 (µg/ml), TZM-bl pseudovirus neutralization [1] of over 50 µg/mL and an IC80 neutralization [2] of 7.36 µg/mL. It also gave a neutralization IC50 [3] of 6.19 µg/mL, an IC80 neutralization [4] of 0.653 µg/mL and an IC50 (µg/ml), TZM-bl cell neutralization assay, pseudovirus [5] of 2.58 µg/mL. The IC80 neutralization [6] was 2.73 µg/mL, the neutralization IC50 [7] was 0.227 µg/mL and the IC80 neutralization [8] was 28.9 µg/mL. It also gave an IC80 neutralization [9] of 0.557 µg/mL, an IC80 neutralization [10] of 1.88 µg/mL and a neutralization IC50 [11] of 2.74 µg/mL. For the same substance, the IC80 neutralization [12] was 3.44 µg/mL, the IC80 neutralization [13] was 38.7 µg/mL and the neutralization IC50 [14] was 2.57 µg/mL. It also gave an IC80 neutralization [15] of 10 µg/mL, an IC80 neutralization [16] of 25 µg/mL and an IC80 neutralization [17] of 0.27 µg/mL. The neutralization IC50 [18] was 0.678 µg/mL, the IC80 neutralization [19] was over 50 µg/mL and the neutralization IC50 [20] was 0.097 µg/mL. It also gave a neutralization IC50 [21] of 0.034 µg/mL, an IC80 neutralization [22] of 6.57 µg/mL and a neutralization IC50 [23] of 0.326 µg/mL. It also gave a neutralization IC50 [24] of 0.11 µg/mL, an IC80 neutralization [25] of 2.86 µg/mL and a neutralization IC50 [26] of 3.41 µg/mL. The neutralization IC50 [27] was 0.011 µg/mL, the IC80 (µg/ml), TZM-bl pseudovirus neutralization [28] was 0.363 µg/mL and the neutralization IC50 [29] was 1.59 µg/mL. The IC80 neutralization [30] was 1.58 µg/mL, the neutralization IC50 [31] was 0.001 µg/mL and the neutralization IC50 [32] was 0.836 µg/mL. For the same substance, the neutralization IC50 [33] was 2.58 µg/mL, the IC50 (µg/ml), TZM-bl cell neutralization assay, pseudovirus [34] was 2.57 µg/mL and the IC50 (µg/ml), TZM-bl cell neutralization assay, pseudovirus [35] was 0.359 µg/mL. For the same substance, the neutralization IC50 [36] was 2.35 µg/mL, the neutralization IC50 [37] was 2.97 µg/mL and the IC80 neutralization [38] was 1.36 µg/mL. For the same substance, the neutralization IC50 [39] was 1.48 µg/mL, the IC80 (µg/ml), TZM-bl pseudovirus neutralization [40] was 3.73 µg/mL and the neutralization IC50 [41] was 3.78 µg/mL. It also gave an IC80 neutralization [42] of 9.31 µg/mL, a neutralization IC50 [43] of 2.47 µg/mL and a neutralization IC50 [44] of 0.526 µg/mL. The IC80 neutralization [45] was 6.11 µg/mL.
